Data published in patent publication US20140170239A1 (VRIJE UNIVERSITEIT BRUSSEL, published 2014).
Where no end group is shown, it is not given here.

B1: FLAG-tagged Cyclin-I2 (other, human, UniProt Q6ZMN8 1-369, looked up)
chain: MASGAQLPPQPSSSEVSAVQSPGGRPGAGLEETALGVPLPPSPGEAPLPRSNRSRCPGTRQPGAASLHAASAAVPVRPRRGTAPAGKTADAVPAAAPEQAPRPAPQSRKPRNLEGDLDERRLLCHLQLAQDREARLWRGGKPQDEICDAFEEVVLWLLRLQNTFYFSQSTFNLALTIFGRLLISVKVKEKYLHCATITSLRLAAKVNEEEEFIPQVKDFTKHYGSDYSPNELLRMELAILDRLHWDLYIGTPLDFLTIFHALVVLSWPHVLELLPQRNPSLHVASLTRQLQHCMAGHQLLQFKGSTLALVIITLELERLMPGWCAPISDLLKKAQVGDMQYSCCKELVMQQLRSLQSSSCTDNFVSPAN
notes: also called CCNI2_HUMAN; CCNI2
B2: CASP8_HUMAN peptide ILTILTE (peptide)
peptide: ILTILTE
notes: spot-synthesized on membrane; also called caspase-8 (CASP8) segment; position Nr 11
B3: DHX33_HUMAN peptide ILTIVSL (peptide)
peptide: ILTIVSL
notes: spot-synthesized on membrane; also called position Nr 4
B4: CC132_HUMAN peptide ILTNTTL (peptide)
peptide: ILTNTTL
notes: spot-synthesized on membrane; also called position Nr 21
B5: METH_HUMAN peptide ILTIGTG (peptide)
peptide: ILTIGTG
notes: spot-synthesized on membrane; also called methionine synthase (METH) segment; position Nr 38
B6: SPEF2_HUMAN peptide ILSIDTL (peptide)
peptide: ILSIDTL
notes: spot-synthesized on membrane; also called position Nr 54
B7: ANXA6_HUMAN peptide ILDIITS (peptide)
peptide: ILDIITS
notes: spot-synthesized on membrane; also called annexin-6 peptide fragment; position Nr 29
B8: P73_HUMAN peptide ILIIITL (peptide)
peptide: ILIIITL
notes: spot-synthesized on membrane; also called p73β; position Nr 35
B9: P63_HUMAN peptide ILIIVTL (peptide)
peptide: ILIIVTL
notes: spot-synthesized on membrane; also called p63β; position Nr 16
B10: CPNE2_HUMAN peptide ILLIITD (peptide)
peptide: ILLIITD
notes: spot-synthesized on membrane; also called Copine-2 (CPNE2) segment; position Nr 42
B11: CCNI2_HUMAN peptide ALVIITL (peptide)
peptide: ALVIITL
notes: spot-synthesized on membrane; also called position Nr 23
B12: TAGAP_HUMAN peptide ILTILCL (peptide)
peptide: ILTILCL
notes: spot-synthesized on membrane; also called position Nr 5
B13: PDS5A_HUMAN peptide IVTIITA (peptide)
peptide: IVTIITA
notes: spot-synthesized on membrane; also called position Nr 3
B14: Control peptide RRPILTIITLEDGS (peptide)
peptide: RRPILTIITLEDGS
notes: spot-synthesized on membrane; longer peptide that holds ILTIITL; also called position Nr 2
B15: MX2_HUMAN peptide DLTIIDL (peptide)
peptide: DLTIIDL
notes: spot-synthesized on membrane; also called position Nr 50
B16: SCC4_HUMAN peptide IQTISTL (peptide)
peptide: IQTISTL
notes: spot-synthesized on membrane; also called position Nr 55
B17: NOL11_HUMAN peptide ILTKYTL (peptide)
peptide: ILTKYTL
notes: spot-synthesized on membrane; also called position Nr 37
B18: CND2_HUMAN peptide ILTKSTL (peptide)
peptide: ILTKSTL
notes: spot-synthesized on membrane; also called position Nr 51
B19: MYST3_HUMAN peptide ILTKPTL (peptide)
peptide: ILTKPTL
notes: spot-synthesized on membrane; also called position Nr 28
B20: RTTN_HUMAN peptide ILTICTK (peptide)
peptide: ILTICTK
notes: spot-synthesized on membrane; also called position Nr 47
B21: BN3D2_HUMAN peptide ALTFITL (peptide)
peptide: ALTFITL
notes: spot-synthesized on membrane; also called position Nr 7
B22: KV117_HUMAN peptide TLTISTL (peptide)
peptide: TLTISTL
notes: spot-synthesized on membrane; also called position Nr 15
B23: BPTF_HUMAN peptide VLTISTL (peptide)
peptide: VLTISTL
notes: spot-synthesized on membrane; also called position Nr 10
B24: DHX29_HUMAN peptide ILQIITE (peptide)
peptide: ILQIITE
notes: spot-synthesized on membrane; also called position Nr 44
B25: KV122_HUMAN peptide ILTISSL (peptide)
peptide: ILTISSL
notes: spot-synthesized on membrane; also called position Nr 22
B26: TRI18_HUMAN peptide CLTIITG (peptide)
peptide: CLTIITG
notes: spot-synthesized on membrane; also called position Nr 26
B27: CT132_HUMAN peptide IKSIITL (peptide)
peptide: IKSIITL
notes: spot-synthesized on membrane; also called position Nr 45
B28: SMG1_HUMAN peptide ILTLIEL (peptide)
peptide: ILTLIEL
notes: spot-synthesized on membrane; also called position Nr 41
B29: CBPC3_HUMAN peptide ILTITTP (peptide)
peptide: ILTITTP
notes: spot-synthesized on membrane; also called position Nr 39
B30: PTPC1_HUMAN peptide IKTIINL (peptide)
peptide: IKTIINL
notes: spot-synthesized on membrane; also called position Nr 33
B31: GCDH_HUMAN peptide MLTEITL (peptide)
peptide: MLTEITL
notes: spot-synthesized on membrane; also called position Nr 19
B32: LRC40_HUMAN peptide IHAIITL (peptide)
peptide: IHAIITL
notes: spot-synthesized on membrane; also called position Nr 27
B33: RTEL1_HUMAN peptide ILTSGTL (peptide)
peptide: ILTSGTL
notes: spot-synthesized on membrane; also called position Nr 36
B34: DIP2B_HUMAN peptide ILTSQTL (peptide)
peptide: ILTSQTL
notes: spot-synthesized on membrane; also called position Nr 20
B35: BCL6B_HUMAN peptide ILTDVTL (peptide)
peptide: ILTDVTL
notes: spot-synthesized on membrane; also called position Nr 40
B36: PRA10_HUMAN peptide FLTIFTL (peptide)
peptide: FLTIFTL
notes: spot-synthesized on membrane; also called position Nr 25
B37: KLH32_HUMAN peptide ILCDITL (peptide)
peptide: ILCDITL
notes: spot-synthesized on membrane; also called position Nr 43
B38: P53_HUMAN peptide ILTIITL (immobilised spot) (peptide)
peptide: ILTIITL
notes: spot-synthesized on membrane; also called p53β; position Nr 1
B39: CGRF1_HUMAN peptide ITTGITL (peptide)
peptide: ITTGITL
notes: spot-synthesized on membrane; also called CGRF1 segment; position Nr 30
B40: CD041_HUMAN peptide ITTVITL (peptide)
peptide: ITTVITL
notes: spot-synthesized on membrane; also called position Nr 8
B41: VATA_HUMAN peptide IYTGITL (peptide)
peptide: IYTGITL
notes: spot-synthesized on membrane; also called position Nr 14
B42: LONF2_HUMAN peptide ILVIITR (peptide)
peptide: ILVIITR
notes: spot-synthesized on membrane; also called position Nr 48
B43: MP2K4_HUMAN peptide ILGKITL (peptide)
peptide: ILGKITL
notes: spot-synthesized on membrane; also called position Nr 17
B44: DYH3_HUMAN peptide ILTFKTL (peptide)
peptide: ILTFKTL
notes: spot-synthesized on membrane; also called position Nr 12
B45: CYTIP_HUMAN peptide LLTIETL (peptide)
peptide: LLTIETL
notes: spot-synthesized on membrane; also called position Nr 24
B46: AL2SA_HUMAN peptide GLTIPTL (peptide)
peptide: GLTIPTL
notes: spot-synthesized on membrane; also called position Nr 52
B47: RFC5_HUMAN peptide ILTEIHL (peptide)
peptide: ILTEIHL
notes: spot-synthesized on membrane; also called position Nr 34
B48: CXL11_HUMAN peptide IEVIITL (peptide)
peptide: IEVIITL
notes: spot-synthesized on membrane; also called position Nr 32
B49: CM031_HUMAN peptide KLTIITS (peptide)
peptide: KLTIITS
notes: spot-synthesized on membrane; also called position Nr 53
B50: ZN830_HUMAN peptide ILTIKEL (peptide)
peptide: ILTIKEL
notes: spot-synthesized on membrane; also called position Nr 31
B51: HEAT1_HUMAN peptide ILTKISL (peptide)
peptide: ILTKISL
notes: spot-synthesized on membrane; also called position Nr 13
B52: PGTA_HUMAN peptide LLTIILL (peptide)
peptide: LLTIILL
notes: spot-synthesized on membrane; also called position Nr 9
B53: EPMIP_HUMAN peptide LLTIINL (peptide)
peptide: LLTIINL
notes: spot-synthesized on membrane; also called position Nr 6
B54: TAF4B_HUMAN peptide ILKQITL (peptide)
peptide: ILKQITL
notes: spot-synthesized on membrane; also called position Nr 49
B55: CD2A1_HUMAN peptide ILRQITL (peptide)
peptide: ILRQITL
notes: spot-synthesized on membrane; also called position Nr 56
B56: BPA1_HUMAN peptide ILKNITL (peptide)
peptide: ILKNITL
notes: spot-synthesized on membrane; also called position Nr 46
B57: PK3C3_HUMAN peptide ILQIISL (peptide)
peptide: ILQIISL
notes: spot-synthesized on membrane; also called position Nr 18

Target: T1, HA-tagged wild-type p53 (human, UniProt P04637 1-393)
T1 construct: range 1-393; expressed in cells, tested in cell lysate; also called WT p53; p53-HA
Assay: co-IP, HeLa cells, anti-FLAG IP, anti-HA blot
Procedure: HeLa (Human epithelial carcinoma) cells were cultured in DMEM supplemented with 10% fetal calf serum (Gibco), L-glutamine (4 mM), penicillin (100 U/ml), and streptomycin (100 U/ml). Proliferating cell cultures were maintained in a 5% CO2-humidified incubator at 37° C. […] The complex of DNA and FuGENE HD was prepared in 500 μL DMEM and incubated for 20 minutes before adding to cells. For stable transfection, DMEM medium containing 10% fetal calf serum and 500 μg/mL G418 was used to select colonies that carried the transfected vector for six weeks, and expression of the vector was validated by Western blot. Stably transfected cells were maintained in medium containing 250 μg/mL G418 for further analysis. Transfection of siRNA for p53 (Santa Cruz) was performed using X-tremeGENE siRNA transfection reagent (Roche) according to the manufacturer's instructions.
Hela cells co-transfected with mutant HA-p53 and FLAG-tagged proteins were lysed with RIPA buffer (Thermo) with DNase and protease inhibitors (Roche) for 30 minutes on ice. […] After incubation at 21° C. for 1 hour, the agarose beads were rinsed with 200 μL TBS three times, and subsequently eluted by heating at 95° C. in presence of SDS (without DTT). The co-immunoprecipitated p53 was detected with mouse anti-HA antibody or anti-p53.

Binder | binding result
B1 | no binding

Target: T2, biotinylated p53β peptide (human, also: biotinylated, site not given here)
T2 construct: also called biotinylated p53-aggregating peptide
T2 peptide: ILTIITL
Assay: peptide-binding assay: peptide spots on membrane, biotinylated p53β peptide, streptavidin-HRP;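 on Binding intensity (normalized): Membrane-bound synthesized peptide spots exposed to the biotinylated p53 aggregation-prone peptide, bound material revealed via streptavidin-HRP and chemiluminescence, spot signal reflecting binding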

Binder | Coaggregation (peptide binding) [%]
B2 | 11.4
B3 | 10.2
B4 | 77
B5 | 49.2
B6 | 79.6
B7 | 78.9
B8 | 99
B9 | 92
B10 | 111
B11 | 43.4
B12 | 4.8

Target: T2, biotinylated p53β peptide
Assay: as above
Remark: another data set of the same source
Procedure: Subsequently, the ability of the selected peptides to interact with p53β using an in vitro peptide-binding assay was empirically determined. Therefore, the 56 selected peptides were spot-synthesized on a cellulose membrane, which was subsequently incubated with biotinylated p53β peptide (FIG. 17, panel b). After washing, the membrane was treated with streptavidine-HRP to detect p53β binding (FIG. 17, panel c).
Peptides of selected sequences were spot synthesized on PVDF membrane (PepSpot, JPT). The membranes were blocked by 1% BSA in phosphate-buffered saline for 1 hour at room temperature, and then incubated with biotinylated peptide containing the p53-aggregating sequence for 1 hour. After rinsing with 0.1% TWEEN® 20 in 25 mM MES buffer pH 7.0, membranes were incubated in HRP-labeled Streptavidin (Thermo) and visualized with electrochemical luminescence (ECL) system.

Binder | Binding intensity (normalized)
B13 | 17.2
B14 | 30.9
B15 | 40.2
B16 | 7.06
B2 | 11.4
B17 | 33.3
B18 | 17.9
B19 | 16.1
B20 | 6.48
B21 | 6.47
B22 | 10.2
B23 | 6.72
B24 | 15.6
B25 | 23.8
B3 | 10.2
B26 | 3.67
B27 | 4.39
B28 | 9.77
B29 | 19.6

Binder | Binding intensity (normalized)
B30 | 9.72
B31 | 3.03
B32 | 8.22
B4 | 77
B5 | 49.2
B33 | 17.3
B34 | 2.39
B6 | 79.6
B35 | 5.88
B36 | 26.4
B7 | 78.9
B37 | 7.89
B8 | 99
B38 | 100
B9 | 92
B39 | 36.7
B40 | 5.27
B41 | 32.1
B42 | 6.81

Binder | Binding intensity (normalized)
B43 | 16.9
B44 | 6.2
B45 | 26.6
B46 | 10.9
B47 | 12.9
B48 | 8.54
B49 | 17.9
B50 | 14.1
B51 | 8.65
B52 | 3.95
B53 | 1.55
B10 | 111
B54 | 19.8
B55 | 14.7
B56 | 12.1
B11 | 43.4
B57 | 26.3
B12 | 4.81
